Earlier results in patent US20260217837A1, “FGFR3 BINDING MOLECULES AND METHODS OF USE THEREOF” (Regeneron Pharmaceuticals, Inc., priority 2023, published 2026).
Substitutions are numbered along the chain they refer to. Numbers in names are those of the source. Like-named read-outs stand apart in the source and are kept apart here.

B1: PRO-029: anti-FGFR3 IIIc antibody of WO 2006/048877 A2; SEQ ID NO: 40/49 (antibody, V domains shown)
VH: QVQLVQSGAEVKKPGASVKVSCKASGYTFTSYYMHWVRQAPGQGLEWMGWINPNSGGTNYAQKFQGRVTMTRDTSISTAYMELSSLRSEDTAVYYCARTWQYSYFYYLDGGYYFDIWGQGTLVTVSS
VL: DIVLTQSPATLSLSPGERATLSCRASQSVSSSYLAWYQQKPGQAPRLLIYGASSRATGVPARFSGSGSGTDFTLTISSLEPEDFATYYCQQTNNAPVTFGQGTKVEIKRT
B2: MS-PRO-12: anti-FGFR3 Ig-like domain 2 antibody of WO 2002/102972 A2; SEQ ID NO: 26/27 (antibody, V domains shown)
VH: QVQLKESGPALVKPQTLTLTCTFSGFSLSTSGVGVGWIRQPPGKALEWLALIDWDDDKYYSTSLKTRLTISKDTSKNQVVLTMTNMDPVDTATYYCARYHSWYEMGYYGSTVGYMFDYWGQGTLVTVSS
VL: DIELTQPPSVSVAPGQTARISCSGDALGDKYASWYQQKPGQAPVLVIYDDSDRPSGIPERFSGSNSGNTATLTISGTQAEDEADYYCQSYDFDFAVFGGGTKLTVLGQ
B3: PRO-054: anti-FGFR3 IIIc antibody of WO 2006/048877 A2; SEQ ID NO: 42/50 (antibody, V domains shown)
VH: QVQLVQSGAEVKKPGASVKVSCKASGYTFTSYYMHWVRQAPGQGLEWMGWINPNSGGTNYAQKFQGRVTMTRDTSISTAYMELSSLRSEDTAVYYCARNMAYTNYQYVNMPHFDYWGQGTLVTVSS
VL: B2 VL with F92Y, D93F, F94K, A95L
B4: Hu15D8: anti-FGFR3 Igl 3 antibody of WO 2010/002862 A2; SEQ ID NO: 59/60 (antibody, V domains shown)
VH: EVQLVQSGAEVKKPGESLKISCKGSGYSFTSYNMYWVRQMPGKGLEWMGYIDPYNGGTSYNQKFKGKATLTVDKSISTAYLQWSSLKASDTAMYYCAREGGNYEAWFAYWGQGTLVTVSS
VL: DIQLTQSPSSLSASVGDRVTITCSASSSVSYMYWFQQKPGKAPKPLIYLTSYLASGVPSRFSGSGSGTDFTLTISSLQPEDFATYYCQQWSSYPLTFGGGTKVEIK
B5: 20B4: anti-FGFR3 Igl 3 antibody of WO 2010/002862 A2; SEQ ID NO: 57/58 (antibody, V domains shown)
VH: EIQLQQSGPELVKPGASVKVSCKASGYSLTDYNMYWVKQSHGKSLEWIGYIDPYNGGTSYNQKFKGKATLTVDKSSSTAFMHLNSLTSEDSAVYYCARSLGPDFDYWGQGTTLTVSS
VL: QIVLTQSPAIMSASPGEKVTMTCSASSSVNYMHWYQQKSGTSPKRWIYDTSKLASGVPARFSGSGSGTSYSLTISSMEAEDTATYYCQQWNSNPLTFGAGTKLELK
B6: PRO-055: anti-FGFR3 IIIc antibody of WO 2006/048877 A2; SEQ ID NO: 44/45 (antibody, V domains shown)
VH: QVQLVQSGAEVKKPGASVKVSCKASGYTFTSYYMHWVRQAPGQGLEWMGWINPNSGGTNYAQKFQGRVTMTRDTSISTAYMELSSLRSEDTAVYYCARSMNSTMYWYLRRVLFDHWGQGTLVTVSS
VL: DIALTQPASVSGSPGQSITISCTGTSSDVGGYNYVSWYQQHPGKAPKLMIYDVSNRPSGVSNRFSGSKSGNTASLTISGLQAEDEADYYCQSYDMYNYIVFGGGTKLTVLGQ
B7: VH: SEQ ID NO: 7 of PCT Publication No: WO 2010/048026 A2: unnamed anti-FGFR3 Ig-like domain 2 antibody, VH SEQ ID NO: 7 / VL SEQ ID NO: 8 of WO 2010/048026 A2; SEQ ID NO: 61/62 (antibody, V domains shown)
VH: EVQLVQSGAEVKKPGASVKVSCKASGYMFTSYGISWVRQAPGQGLEWMGWVSTYNGDTNYAQKFQGRVTVTTDTSTSTAYMELRSLRSEDTAVYYCARVLGYYDSIDGYYYGMDVWGQGTTVTVSS
VL: QSVLTQPPSLSVAPGKTATFTCGGNNIGDKSVHWYRQKPGQAPVLVMYLDTERPSGIPERMSGSNFGNTATLTITRVEAEDEADYYCQVWDSGSDHVVFGGGTKLTVLG
B8: KC18: anti-FGFR3 IIIb and IIIc antibody of WO 2022/040560 A1; SEQ ID NO: 72/73 (antibody, V domains shown)
VH: QVQLQQSGAELVRPGASVTLSCKASGDTFTDFEIHWVKQTPVHGLEWIGDIDPETGGTAYNQKFRGRAMLTADRSSSTAYMELRSLTSEDSAVYYCTRTYDGYPYAMDYWGQGTSVTVSS
VL: DIVMSQSPSSLAVSVGEKVTMSCKSSQSLLYSNNQKNYLAWYQQKPGQSPKLLIYWASTRESGVPDRFTGSGSGTDFTLTISSVKAEDLAVYYCQQYYSYRTFGGGTKLEIK
B9: 184.6.1.N54S: anti-FGFR3 Ig-like domain 3 antibody of WO 2010/111367 A1; SEQ ID NO: 63/64 (antibody, V domains shown)
VH: EVQLVESGGGLVQPGGSLRLSCAASGFTFTSTGISWVRQAPGKGLEWVGRIYPTSGSTNYADSVKGRFTISADTSKNTAYLQMNSLRAEDTAVYYCARARTYGIYDLYVDYTEYVMDYWGQGTLV
VL: DIQMTQSPSSLSASVGDRVTITCRASQDVDTSLAWYQQKPGKAPKLLIYSASFLYSGVPSRFSGSGSGTDFTLTISSLQPEDFATYYCQQSTGHPQTFGQGTKVEIKR
B10: 184.6.62: anti-FGFR3 Ig-like domain 3 antibody of WO 2010/111367 A1; SEQ ID NO: 67/68 (antibody, V domains shown)
VH: B9 VH with T30S, S31T, G49A, T54L, S55Y, N59H
VL: B9 VL with D30S, S32A, L33V, S91T, T92Y, G93T, H94T, P95S, Q96L
B11: 184.6.58: anti-FGFR3 Ig-like domain 3 antibody of WO 2010/111367 A1 (aka R3Mab); SEQ ID NO: 65/66 (antibody, V domains shown)
VH: B9 VH with G49A, S55N
VL: B9 VL with T31I, S91G, T92A, H94N, Q96Y
B12: 184.6.1.NS D30E: anti-FGFR3 Ig-like domain 3 antibody of WO 2010/111367 A1; SEQ ID NO: 63/69 (antibody, V domains shown)
VH: B9 VH
VL: B9 VL with D30E
B13: B-701: anti-FGFR3 antibody of WO 2016/134234 A1; SEQ ID NO: 70/71 (antibody, V domains shown)
VH: EVQLVESGGGLVQPGGSLRLSCAASGFTFTSTGISWVRQAPGKGLEWVGRIYPTSGSTNYADSVKGRFTISADTSKNTAYLQMNSLRAEDTAVYYCARTYGIYDLYVDYTEYVMDYWGQGTLV
VL: B9 VL with Q37K
B14: MS-Pro-59: anti-FGFR3 Ig-like domain 3 antibody of WO 2002/102972 A2; SEQ ID NO: 28/29 (antibody, V domains shown)
VH: QVQLQQSGPGLVKPSQTLSLTCAISGDSVSSNSAAWNWIRQSPGRGLEWLGRTYYRSKWYNDYAVSVKSRITINDTSKNQFSLQLNSVTPEDTAVYYCARSYYPDFDYWGQGTVTVSS
VL: DIELTQPPSVSVAPGQTARISCSGDALGDKYASWYQQKPGQAPVLVIYDDSDRPSGIPERFSGSNSGNTATLTISGTQAEDEADYYCQSYDGPDLWVFGGGTKLTVLGQ
B15: 15D8: anti-FGFR3 Igl 3 antibody of WO 2010/002862 A2; SEQ ID NO: 51/52 (antibody, V domains shown)
VH: EIQLQQSGPELVKPGASVKVSCKASGYAFTSYNMYWVKQSHGKSLEWIGYIDPYNGGTSYNQKFKGKATLTVDKSSSTAYMHLNSLTSEDSAVYYCAREGGNYEAWFAYWGQGTLVTVSA
VL: QIVLTQSPALMSASPGEKVTMTCSASSSVSYMYWYQQKPRSSPKPWIYLTSYLASGVPARFSGSGSGTSYSLTISSMEAEDAATYYCQQWSSYPLTFGAGTKLELK
B16: 2G4: anti-FGFR3 Igl 3 antibody of WO 2010/002862 A2; SEQ ID NO: 55/54 (antibody, V domains shown)
VH: B15 VH with S59R, Y60D
VL: B15 VL with Y52N, Y93N
B17: 27H2: anti-FGFR3 Igl 3 antibody of WO 2010/002862 A2; SEQ ID NO: 53/54 (antibody, V domains shown)
VH: B15 VH with S59R, L70M
VL: B15 VL with Y52N, Y93N
B18: 4E7(7D12): anti-FGFR3 Igl 3 antibody of WO 2010/002862 A2; SEQ ID NO: 56/54 (antibody, V domains shown)
VH: B15 VH with S59R
VL: B15 VL with Y52N, Y93N

System: FGFR3
[1] = Exemplary FGFR3 D3 binding sequences, antibodies of cited PCT publications
[2] = Table T-1, exemplary FGFR3 parental antibodies of cited publications

Molecule | Activity [1] | Activity [2]
B1 | Antagonistic | Antagonistic
B2 | – | Antagonistic
B3 | Antagonistic | Antagonistic
B4 | Antagonistic | Antagonistic
B5 | Antagonistic | Antagonistic
B6 | Antagonistic | Antagonistic
B7 | – | Antagonistic
B8 | Antagonistic | Antagonistic
B9 | Antagonistic | Antagonistic
B10 | Antagonistic | Antagonistic
B11 | Antagonistic | Antagonistic
B12 | Antagonistic | Antagonistic
B13 | – | Antagonistic
B14 | Antagonistic | Antagonistic
B15 | Antagonistic | Antagonistic
B16 | Antagonistic | Antagonistic
B17 | Antagonistic | Antagonistic
B18 | Antagonistic | Antagonistic
